Assay results as given in US20150203577A1 (Chugai, published 2015).

T1: mouse FcγRII extracellular domain with C-terminal His tag (mouse, UniProt P08101 30-210)
T1 construct: Made on the basis of NCBI NP-034317.1; also called mFcγRII; mFcgRII
T1 sequence: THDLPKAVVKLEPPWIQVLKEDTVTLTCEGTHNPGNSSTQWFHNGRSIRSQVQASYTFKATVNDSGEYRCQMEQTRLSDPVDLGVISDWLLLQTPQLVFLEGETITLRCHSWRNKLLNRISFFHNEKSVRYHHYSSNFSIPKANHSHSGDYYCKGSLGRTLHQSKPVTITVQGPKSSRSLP

T2: mouse FcγRIII extracellular domain with C-terminal His tag (mouse, UniProt P08508 31-215)
T2 construct: Made on the basis of NCBI NP-034318.2; also called mFcγRIII; mFcgRIII
T2 chain: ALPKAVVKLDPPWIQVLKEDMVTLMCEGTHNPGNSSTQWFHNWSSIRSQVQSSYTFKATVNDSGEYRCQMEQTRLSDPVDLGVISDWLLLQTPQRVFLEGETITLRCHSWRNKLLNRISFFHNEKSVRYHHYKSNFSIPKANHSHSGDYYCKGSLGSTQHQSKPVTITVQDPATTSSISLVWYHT


Assays:
[1] = target: T1, mouse FcγRII extracellular domain with …; experiment: SPR Biacore T200; KD mFcγRIII / KD mFcγRII
Protocol: (§1) Each altered antibody was analyzed for its interaction with each Fcγ receptor prepared above using Biacore T100 (GE Healthcare Japan Corp.), Biacore T200 (GE Healthcare Japan Corp.), Biacore A100, or Biacore 4000. The running buffer used was HBS-EP+ (GE Healthcare Japan Corp.). The assay temperature was set to 25° C. The sensor chips used were chips prepared by immobilizing Protein L (ACTIGEN or BioVision) onto Series S Sensor Chip CM5 (GE Healthcare Japan Corp.) or Series S Sensor Chip CM4 (GE Healthcare Japan Corp.) by the amine coupling method.
(§2) In order to calculate the KD value of each altered antibody for FcγR, kinetic analysis was conducted according to the following method: first, the antibody of interest was captured onto any of these chips and allowed to interact with mFcγR diluted with a running buffer. For the obtained sensorgram, the assay results were globally fit into the 1:1 Langmuir binding model using Biacore Evaluation Software to calculate an association rate constant ka (L/mol/s) and a dissociation rate constant kd (1/s). From these values, the dissociation constant KD (mol/L) was calculated.

[2] = target: T1, mouse FcγRII extracellular domain with …; experiment: SPR Biacore T200
Protocol: as §1, §2

[3] = target: T2, mouse FcγRIII extracellular domain with …; experiment: SPR Biacore T200
Protocol: as §1, §2

relative I/A (mFcγRII selectivity) (mIgG1 = 1) [1]	relative mFcγRII-binding activity (mIgG1 = 1) [2]	relative mFcγRIII-binding activity (mIgG1 = 1) [3]	I/A (mFcγRII selectivity) [1]	Kd [2]	Kd [3]	Binder
18.6	172	9.3				H237-MB378/MRAL-k0 (antibody, mouse IgG1, kappa, copies: 2 + 2) heavy: QVQLQESGPGLVKPSETLSLTCAVSGHSISHDHAWSWVRQPPGEGLEWIGFISYSGITNYNPSLQGRVTISRDNSKNTLYLQMNSLRAEDTAVYYCARSLARTTAMDYWGEGTLVTVSSAKTTPPSVYPLAPGSAAQTNSMVTLGCLVKGYFPEPVTVTWNSGSLSSGVHTFPAVLQSDLYTLSSSVTVPSSTWPSETVTCNVAHPASSTKVDKKIVPRDCGCKPCICEVNEVEDVFIFPPKPKDVLTITLTPKVTCVVVDISKDDPEVQFSWFVDDVEVHTAQTQPREEQFNSTFRSVSELPIMHQDWLNGKEFKCRVNSAAFPAPIEKTISKTKGRPKAPQVYTIPPPKEQMAKDKVSLTCMITDFFPEDITVEWQWNGQPAENYKNTQPIMDTDGSYFVYSKLNVQKSNWEAGNTFTCSVLHEGLHNHHTEKSLSHSPGK light: not shown
16.5	93.5	5.7				H237-MB381/MRAL-k0 (antibody, mouse IgG1, kappa, copies: 2 + 2) heavy: QVQLQESGPGLVKPSETLSLTCAVSGHSISHDHAWSWVRQPPGEGLEWIGFISYSGITNYNPSLQGRVTISRDNSKNTLYLQMNSLRAEDTAVYYCARSLARTTAMDYWGEGTLVTVSSAKTTPPSVYPLAPGSAAQTNSMVTLGCLVKGYFPEPVTVTWNSGSLSSGVHTFPAVLQSDLYTLSSSVTVPSSTWPSETVTCNVAHPASSTKVDKKIVPRDCGCKPCICEDNEVEDVFIFPPKPKDVLTITLTPKVTCVVVDISKDDPEVQFSWFVDDVEVHTAQTQPREEQFNSTFRSVSELPIMHQDWLNGKEFKCRVNSAAFPAPIEKTISKTKGRPKAPQVYTIPPPKEQMAKDKVSLTCMITDFFPEDITVEWQWNGQPAENYKNTQPIMDTDGSYFVYSKLNVQKSNWEAGNTFTCSVLHEGLHNHHTEKSLSHSPGK light: not shown
19.6	106	5.4				H237-MB383/MRAL-k0 (antibody, mouse IgG1, kappa, copies: 2 + 2) heavy: QVQLQESGPGLVKPSETLSLTCAVSGHSISHDHAWSWVRQPPGEGLEWIGFISYSGITNYNPSLQGRVTISRDNSKNTLYLQMNSLRAEDTAVYYCARSLARTTAMDYWGEGTLVTVSSAKTTPPSVYPLAPGSAAQTNSMVTLGCLVKGYFPEPVTVTWNSGSLSSGVHTFPAVLQSDLYTLSSSVTVPSSTWPSETVTCNVAHPASSTKVDKKIVPRDCGCKPCICENPEVEDVFIFPPKPKDVLTITLTPKVTCVVVDISKDDPEVQFSWFVDDVEVHTAQTQPREEQFNSTFRSVSELPIMHQDWLNGKEFKCRVNSAAFPAPIEKTISKTKGRPKAPQVYTIPPPKEQMAKDKVSLTCMITDFFPEDITVEWQWNGQPAENYKNTQPIMDTDGSYFVYSKLNVQKSNWEAGNTFTCSVLHEGLHNHHTEKSLSHSPGK light: not shown
18.6	268	14.5	24.9	0.784 nM	19.5 nM	H237-MB386/MRAL-k0 (antibody, mouse IgG1, kappa, copies: 2 + 2) heavy: QVQLQESGPGLVKPSETLSLTCAVSGHSISHDHAWSWVRQPPGEGLEWIGFISYSGITNYNPSLQGRVTISRDNSKNTLYLQMNSLRAEDTAVYYCARSLARTTAMDYWGEGTLVTVSSAKTTPPSVYPLAPGSAAQTNSMVTLGCLVKGYFPEPVTVTWNSGSLSSGVHTFPAVLQSDLYTLSSSVTVPSSTWPSETVTCNVAHPASSTKVDKKIVPRDCGCKPCICENWEVEDVFIFPPKPKDVLTITLTPKVTCVVVDISKDDPEVQFSWFVDDVEVHTAQTQPREEQFNSTFRSVSELPIMHQDWLNGKEFKCRVNSAAFPAPIEKTISKTKGRPKAPQVYTIPPPKEQMAKDKVSLTCMITDFFPEDITVEWQWNGQPAENYKNTQPIMDTDGSYFVYSKLNVQKSNWEAGNTFTCSVLHEGLHNHHTEKSLSHSPGK light: not shown
19.2	152	7.9				H237-MB385/MRAL-k0 (antibody, mouse IgG1, kappa, copies: 2 + 2) heavy: QVQLQESGPGLVKPSETLSLTCAVSGHSISHDHAWSWVRQPPGEGLEWIGFISYSGITNYNPSLQGRVTISRDNSKNTLYLQMNSLRAEDTAVYYCARSLARTTAMDYWGEGTLVTVSSAKTTPPSVYPLAPGSAAQTNSMVTLGCLVKGYFPEPVTVTWNSGSLSSGVHTFPAVLQSDLYTLSSSVTVPSSTWPSETVTCNVAHPASSTKVDKKIVPRDCGCKPCICENNEVEDVFIFPPKPKDVLTITLTPKVTCVVVDISKDDPEVQFSWFVDDVEVHTAQTQPREEQFNSTFRSVSELPIMHQDWLNGKEFKCRVNSAAFPAPIEKTISKTKGRPKAPQVYTIPPPKEQMAKDKVSLTCMITDFFPEDITVEWQWNGQPAENYKNTQPIMDTDGSYFVYSKLNVQKSNWEAGNTFTCSVLHEGLHNHHTEKSLSHSPGK light: not shown
25.9	281	10.9	34.7	0.747 nM	25.9 nM	H237-MB391/MRAL-k0 (antibody, mouse IgG1, kappa, copies: 2 + 2) heavy: QVQLQESGPGLVKPSETLSLTCAVSGHSISHDHAWSWVRQPPGEGLEWIGFISYSGITNYNPSLQGRVTISRDNSKNTLYLQMNSLRAEDTAVYYCARSLARTTAMDYWGEGTLVTVSSAKTTPPSVYPLAPGSAAQTNSMVTLGCLVKGYFPEPVTVTWNSGSLSSGVHTFPAVLQSDLYTLSSSVTVPSSTWPSETVTCNVAHPASSTKVDKKIVPRDCGCKPCICEPWEVEDVFIFPPKPKDVLTITLTPKVTCVVVDISKDDPEVQFSWFVDDVEVHTAQTQPREEQFNSTFRSVSELPIMHQDWLNGKEFKCRVNSAAFPAPIEKTISKTKGRPKAPQVYTIPPPKEQMAKDKVSLTCMITDFFPEDITVEWQWNGQPAENYKNTQPIMDTDGSYFVYSKLNVQKSNWEAGNTFTCSVLHEGLHNHHTEKSLSHSPGK light: not shown
19.8	125	6.3				H237-MB384/MRAL-k0 (antibody, mouse IgG1, kappa, copies: 2 + 2) heavy: QVQLQESGPGLVKPSETLSLTCAVSGHSISHDHAWSWVRQPPGEGLEWIGFISYSGITNYNPSLQGRVTISRDNSKNTLYLQMNSLRAEDTAVYYCARSLARTTAMDYWGEGTLVTVSSAKTTPPSVYPLAPGSAAQTNSMVTLGCLVKGYFPEPVTVTWNSGSLSSGVHTFPAVLQSDLYTLSSSVTVPSSTWPSETVTCNVAHPASSTKVDKKIVPRDCGCKPCICENAEVEDVFIFPPKPKDVLTITLTPKVTCVVVDISKDDPEVQFSWFVDDVEVHTAQTQPREEQFNSTFRSVSELPIMHQDWLNGKEFKCRVNSAAFPAPIEKTISKTKGRPKAPQVYTIPPPKEQMAKDKVSLTCMITDFFPEDITVEWQWNGQPAENYKNTQPIMDTDGSYFVYSKLNVQKSNWEAGNTFTCSVLHEGLHNHHTEKSLSHSPGK light: not shown
18.7	78.1	4.2				H237-MB380/MRAL-k0 (antibody, mouse IgG1, kappa, copies: 2 + 2) heavy: QVQLQESGPGLVKPSETLSLTCAVSGHSISHDHAWSWVRQPPGEGLEWIGFISYSGITNYNPSLQGRVTISRDNSKNTLYLQMNSLRAEDTAVYYCARSLARTTAMDYWGEGTLVTVSSAKTTPPSVYPLAPGSAAQTNSMVTLGCLVKGYFPEPVTVTWNSGSLSSGVHTFPAVLQSDLYTLSSSVTVPSSTWPSETVTCNVAHPASSTKVDKKIVPRDCGCKPCICEDAEVEDVFIFPPKPKDVLTITLTPKVTCVVVDISKDDPEVQFSWFVDDVEVHTAQTQPREEQFNSTFRSVSELPIMHQDWLNGKEFKCRVNSAAFPAPIEKTISKTKGRPKAPQVYTIPPPKEQMAKDKVSLTCMITDFFPEDITVEWQWNGQPAENYKNTQPIMDTDGSYFVYSKLNVQKSNWEAGNTFTCSVLHEGLHNHHTEKSLSHSPGK light: not shown
25.9	277	10.8	34.6	0.757 nM	26.2 nM	H237-MB388/MRAL-k0 (antibody, mouse IgG1, kappa, copies: 2 + 2) heavy: QVQLQESGPGLVKPSETLSLTCAVSGHSISHDHAWSWVRQPPGEGLEWIGFISYSGITNYNPSLQGRVTISRDNSKNTLYLQMNSLRAEDTAVYYCARSLARTTAMDYWGEGTLVTVSSAKTTPPSVYPLAPGSAAQTNSMVTLGCLVKGYFPEPVTVTWNSGSLSSGVHTFPAVLQSDLYTLSSSVTVPSSTWPSETVTCNVAHPASSTKVDKKIVPRDCGCKPCICEPPEVEDVFIFPPKPKDVLTITLTPKVTCVVVDISKDDPEVQFSWFVDDVEVHTAQTQPREEQFNSTFRSVSELPIMHQDWLNGKEFKCRVNSAAFPAPIEKTISKTKGRPKAPQVYTIPPPKEQMAKDKVSLTCMITDFFPEDITVEWQWNGQPAENYKNTQPIMDTDGSYFVYSKLNVQKSNWEAGNTFTCSVLHEGLHNHHTEKSLSHSPGK light: not shown
